# Results as given in publication PMC4273445 (eLife, 2014).
# How the values were obtained:
# Experiment in all cases: SPR
# [1] = target: fHbp V1.1 Asp181 to Ala (N. meningitidis)
# [2] = target: fHbp V3.28 Gln (at V1 Arg145) to Ala (N. meningitidis)
# [3] = target: fHbp V3.28 Ile (at V1 Ile154) to Ala (N. meningitidis)
# [4] = target: fHbp 3.P47 (N. meningitidis) (UniProt E6MV22)
# [5] = target: fHbp V1.1 Lys92 to Ala (N. meningitidis)
# [6] = target: fHbp V2.21 Glu (at V1 Gly267) to Ala (N. meningitidis)
# [7] = target: fHbp V1.1 Ile147 to Ala (N. meningitidis)
# [8] = target: fHbp V3.28 Asp (at V1 Gln103) to Ala (N. meningitidis)
# [9] = target: fHbp V3.28 Val (at V1 Ile311) to Ala (N. meningitidis)
# [10] = target: fHbp V1.1 Ser274 to Ala (N. meningitidis)
# [11] = target: fHbp V2.21 Thr (at V1 Glu304) to Ala (N. meningitidis)
# [12] = target: fHbp V3.28 Val (at V1 Leu171) to Ala (N. meningitidis)
# [13] = target: fHbp 3.P84 (N. meningitidis) (UniProt E6MV22)
# [14] = target: fHbp V1.1 Lys264 to Ala (N. meningitidis)
# [15] = target: fHbp V3.28 Glu (at V1 Asp262) to Ala (N. meningitidis)
# [16] = target: fHbp V2.21 His (at V1 Ser288) to Ala (N. meningitidis)
# [17] = target: fHbp V1.1 His248 to Ala (N. meningitidis)
# [18] = target: fHbp V2.21 Leu (at V1 Ser274) to Ala (N. meningitidis)
# [19] = target: fHbp V3.28 Val (at V1 Val149) to Ala (N. meningitidis)
# [20] = target: fHbp V2.21 Val (at V1 Ile311) to Ala (N. meningitidis)
# [21] = target: fHbp V1.1 Ile196 to Ala (N. meningitidis)
# [22] = target: fHbp 1.P37 (N. meningitidis) (UniProt E6MV22)
# [23] = target: fHbp V3.28 His (at V1 His203) to Ala (N. meningitidis)
# [24] = target: fHbp V3.28 Gln (at V1 Lys191) to Ala (N. meningitidis)
# [25] = target: fHbp V2.21 Asn (at V1 Gln180) to Ala (N. meningitidis)
# [26] = target: fHbp V3.28 His (at V1 Ser288) to Ala (N. meningitidis)
# [27] = target: fHbp 1.P13 (N. meningitidis) (UniProt E6MV22)
# [28] = target: fHbp V2.21 Ile (at V1 Ile147) to Ala (N. meningitidis)
# [29] = target: fHbp V2.21 Gln (at V1 Gln103) to Ala (N. meningitidis)
# [30] = target: fHbp V1.1 Leu171 to Ala (N. meningitidis)
# [31] = target: fHbp V2.21 Glu (at V1 Glu109) to Ala (N. meningitidis)
# [32] = target: fHbp V3.28 Thr (at V1 Ser185) to Ala (N. meningitidis)
# [33] = target: fHbp V2.21 Asp (at V1 Asp150) to Ala (N. meningitidis)
# [34] = target: fHbp V1.1 Leu156 to Ala (N. meningitidis)
# [35] = target: fHbp V2.21 Ser (at V1 Ser302) to Ala (N. meningitidis)
# [36] = target: fHbp V2.21 Glu (at V1 Glu283) to Ala (N. meningitidis)
# [37] = target: fHbp V3.28 Lys (at V1 Lys92) to Ala (N. meningitidis)
# [38] = target: fHbp 1.P292 (N. meningitidis) (UniProt E6MV22)
# [39] = target: fHbp V2.21 Pro (at V1 Ser182) to Ala (N. meningitidis)
# [40] = target: fHbp 3.P30 (N. meningitidis) (UniProt E6MV22)
# [41] = target: fHbp V1.1 Ser288 to Ala (N. meningitidis)
# [42] = target: fHbp V3.28 Ile (at V1 Ile147) to Ala (N. meningitidis)
# [43] = target: fHbp V1.1 Phe174 to Ala (N. meningitidis)
# [44] = target: fHbp V3.28 Ala (at V1 Glu157) to Glu (N. meningitidis)
# [45] = target: fHbp V1.1 Asn108 to Ala (N. meningitidis)
# [46] = target: fHbp V3.28 Phe (at V1 Phe292) to Ala (N. meningitidis)
# [47] = target: fHbp V1.1 Pro265 to Ala (N. meningitidis)
# [48] = target: fHbp V3.28 Gly (at V1 Glu109) to Ala (N. meningitidis)
# CFH67, CCP domains 6 and 7 of complement factor H, sequence (P08603 321-443): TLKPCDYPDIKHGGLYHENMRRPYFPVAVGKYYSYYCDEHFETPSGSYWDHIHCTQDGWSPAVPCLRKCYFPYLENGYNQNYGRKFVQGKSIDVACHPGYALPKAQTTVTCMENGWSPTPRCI
substance,measurement,setting,value
"CFH67, CCP domains 6 and 7 of complement factor H (from UniProt P08603 321-443) (domain or fragment)",Kd,[1],4.14 nM
same,Kd,[2],0.621 nM
same,Kd,[3],14.3 nM
same,Kd,[4],0.514 nM
same,Kd,[5],4.4 nM
same,Kd,[6],1.63 nM
same,Kd,[7],17.3 nM
same,Kd,[8],2.7 nM
same,Kd,[9],30.3 nM
same,Kd,[10],11.3 nM
same,Kd,[11],19.2 nM
same,Kd,[12],3.07 nM
same,Kd,[13],2.64 nM
same,Kd,[14],12.3 nM
same,Kd,[15],6.4 nM
same,Kd,[16],6.77 nM
same,Kd,[17],3.36 nM
same,Kd,[18],23.9 nM
same,Kd,[19],6.81 nM
same,Kd,[20],6.07 nM
same,Kd,[21],1.07 nM
same,Kd,[22],1.11 nM
same,Kd,[23],2.33 nM
same,Kd,[24],2.43 nM
same,Kd,[25],6.21 nM
same,Kd,[26],7.66 nM
same,Kd,[27],10.7 nM
same,Kd,[28],3.58 nM
same,Kd,[29],6.01 nM
same,Kd,[30],7.45 nM
same,Kd,[31],2.34 nM
same,Kd,[32],4.42 nM
same,Kd,[33],3.24 nM
same,Kd,[34],60.5 nM
same,Kd,[35],8.39 nM
same,Kd,[36],197 nM
same,Kd,[37],2.67 nM
same,Kd,[38],7.74 nM
same,Kd,[39],7.98 nM
same,Kd,[40],1.97 nM
same,Kd,[41],2.87 nM
same,Kd,[42],33.6 nM
same,Kd,[43],3.21 nM
same,Kd,[44],37.5 nM
same,Kd,[45],3.73 nM
same,Kd,[46],1.97 nM
same,Kd,[47],3.62 nM
same,Kd,[48],2.82 nM
"CFHR3_(12), the first two (N-terminal) CCP domains of complement factor H-related 3 (from UniProt Q02985 19-330) (domain or fragment)",Kd,[1],52.5 nM
same,Kd,[2],0.434 nM
same,Kd,[3],13.7 nM
same,Kd,[4],1.64 nM
same,Kd,[5],71.9 nM
same,Kd,[6],2.13 nM
same,Kd,[7],174 nM
same,Kd,[8],2.81 nM
same,Kd,[9],36.3 nM
same,Kd,[10],43.5 nM
same,Kd,[11],16.3 nM
same,Kd,[12],3.81 nM
same,Kd,[13],6.08 nM
same,Kd,[14],589 nM
same,Kd,[15],6.86 nM
same,Kd,[16],7.63 nM
same,Kd,[17],82.5 nM
same,Kd,[18],17.8 nM
same,Kd,[19],8.28 nM
same,Kd,[20],9.68 nM
same,Kd,[21],35.2 nM
same,Kd,[22],7.52 nM
same,Kd,[23],3.47 nM
same,Kd,[24],3.05 nM
same,Kd,[25],5.87 nM
same,Kd,[26],9.65 nM
same,Kd,[27],54.3 nM
same,Kd,[28],8.22 nM
same,Kd,[29],4.01 nM
same,Kd,[30],724 nM
same,Kd,[31],4.62 nM
same,Kd,[32],3.76 nM
same,Kd,[33],3.64 nM
same,Kd,[34],311 nM
same,Kd,[35],6.3 nM
same,Kd,[36],22.6 nM
same,Kd,[37],3.39 nM
same,Kd,[38],31.4 nM
same,Kd,[39],5.84 nM
same,Kd,[40],2.93 nM
same,Kd,[41],57.5 nM
same,Kd,[42],17.9 nM
same,Kd,[43],338 nM
same,Kd,[44],4.35 nM
same,Kd,[45],90.7 nM
same,Kd,[46],2.91 nM
same,Kd,[47],130 nM
same,Kd,[48],1.96 nM
